Target: Tle3^AIEC (type VI lipase effector 3 of adherent-invasive Escherichia coli LF82) (Escherichia coli AIEC LF82)
Assay: SEC; purified Tle3 and Tli3 mixed at a molar ratio of 1:1.3; Superdex 200 16/60 in Hepes 10 mM pH 6.8, NaCl 150 mM; apparent molecular mass 100 kDa against a theoretical 101.9 kDa

Question: With “Tli3^AIEC (type VI lipase immunity protein 3 of adherent-invasive Escherichia coli LF82) (natural protein)” as the substance, how does the stoichiometry N read?
Answer: 1

Reference: PMC9860674
